T1: TNFR1 (Homo sapiens, UniProt P19438)
T1 chain: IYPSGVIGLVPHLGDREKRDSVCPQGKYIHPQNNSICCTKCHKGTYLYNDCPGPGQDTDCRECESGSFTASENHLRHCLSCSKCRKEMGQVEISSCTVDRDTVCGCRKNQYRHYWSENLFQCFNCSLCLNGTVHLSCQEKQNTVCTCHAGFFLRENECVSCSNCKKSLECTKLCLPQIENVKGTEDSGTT


Target: T1, TNFR1
Assay: yeast display SC50

apparent Kd (screen) [nM] | Binder
0.653 | E101M (designed binder) MTLQELLREEALRRAEAEAFRYALELLAEKFPEQKEYLLDLAEEIESQIRSLSGVDVEDVRKFLDKEWAWVKELLAEHPAELAEVEAARAARLAELRAEVMAKVAA
2.05 | A28V (designed binder) MTLQELLREEALRRAEAEAFRYALELLVEKFPEQKEYLLDLAEEIESQIRSLSGVDVEDVRKFLDKEWAWVKELLAEHPAELAEVEAARAARLAELRAEVEAKVAA
0.49 | A17F (designed binder) MTLQELLREEALRRAEFEAFRYALELLAEKFPEQKEYLLDLAEEIESQIRSLSGVDVEDVRKFLDKEWAWVKELLAEHPAELAEVEAARAARLAELRAEVEAKVAA
0.405 | K35N (designed binder) MTLQELLREEALRRAEAEAFRYALELLAEKFPEQNEYLLDLAEEIESQIRSLSGVDVEDVRKFLDKEWAWVKELLAEHPAELAEVEAARAARLAELRAEVEAKVAA
6.43 | D56P (designed binder) MTLQELLREEALRRAEAEAFRYALELLAEKFPEQKEYLLDLAEEIESQIRSLSGVPVEDVRKFLDKEWAWVKELLAEHPAELAEVEAARAARLAELRAEVEAKVAA
1.05 | S51R (designed binder) MTLQELLREEALRRAEAEAFRYALELLAEKFPEQKEYLLDLAEEIESQIRRLSGVDVEDVRKFLDKEWAWVKELLAEHPAELAEVEAARAARLAELRAEVEAKVAA
0.142 | E43Y (designed binder) MTLQELLREEALRRAEAEAFRYALELLAEKFPEQKEYLLDLAYEIESQIRSLSGVDVEDVRKFLDKEWAWVKELLAEHPAELAEVEAARAARLAELRAEVEAKVAA
0.49 | E46M (designed binder) MTLQELLREEALRRAEAEAFRYALELLAEKFPEQKEYLLDLAEEIMSQIRSLSGVDVEDVRKFLDKEWAWVKELLAEHPAELAEVEAARAARLAELRAEVEAKVAA
0.49 | R21W (designed binder) MTLQELLREEALRRAEAEAFWYALELLAEKFPEQKEYLLDLAEEIESQIRSLSGVDVEDVRKFLDKEWAWVKELLAEHPAELAEVEAARAARLAELRAEVEAKVAA
0.653 | E10Y (designed binder) MTLQELLREYALRRAEAEAFRYALELLAEKFPEQKEYLLDLAEEIESQIRSLSGVDVEDVRKFLDKEWAWVKELLAEHPAELAEVEAARAARLAELRAEVEAKVAA
0.142 | R13Q (designed binder) MTLQELLREEALQRAEAEAFRYALELLAEKFPEQKEYLLDLAEEIESQIRSLSGVDVEDVRKFLDKEWAWVKELLAEHPAELAEVEAARAARLAELRAEVEAKVAA
0.593 | K72F (designed binder) MTLQELLREEALRRAEAEAFRYALELLAEKFPEQKEYLLDLAEEIESQIRSLSGVDVEDVRKFLDKEWAWVFELLAEHPAELAEVEAARAARLAELRAEVEAKVAA
1.54 | V57N (designed binder) MTLQELLREEALRRAEAEAFRYALELLAEKFPEQKEYLLDLAEEIESQIRSLSGVDNEDVRKFLDKEWAWVKELLAEHPAELAEVEAARAARLAELRAEVEAKVAA
6.43 | L52P (designed binder) MTLQELLREEALRRAEAEAFRYALELLAEKFPEQKEYLLDLAEEIESQIRSPSGVDVEDVRKFLDKEWAWVKELLAEHPAELAEVEAARAARLAELRAEVEAKVAA
2.73 | Q34M (designed binder) MTLQELLREEALRRAEAEAFRYALELLAEKFPEMKEYLLDLAEEIESQIRSLSGVDVEDVRKFLDKEWAWVKELLAEHPAELAEVEAARAARLAELRAEVEAKVAA
0.49 | E5R (designed binder) MTLQRLLREEALRRAEAEAFRYALELLAEKFPEQKEYLLDLAEEIESQIRSLSGVDVEDVRKFLDKEWAWVKELLAEHPAELAEVEAARAARLAELRAEVEAKVAA
0.79 | K103E (designed binder) MTLQELLREEALRRAEAEAFRYALELLAEKFPEQKEYLLDLAEEIESQIRSLSGVDVEDVRKFLDKEWAWVKELLAEHPAELAEVEAARAARLAELRAEVEAEVAA
0.405 | A23N (designed binder) MTLQELLREEALRRAEAEAFRYNLELLAEKFPEQKEYLLDLAEEIESQIRSLSGVDVEDVRKFLDKEWAWVKELLAEHPAELAEVEAARAARLAELRAEVEAKVAA
0.49 | Q34S (designed binder) MTLQELLREEALRRAEAEAFRYALELLAEKFPESKEYLLDLAEEIESQIRSLSGVDVEDVRKFLDKEWAWVKELLAEHPAELAEVEAARAARLAELRAEVEAKVAA
0.593 | K62A (designed binder) MTLQELLREEALRRAEAEAFRYALELLAEKFPEQKEYLLDLAEEIESQIRSLSGVDVEDVRAFLDKEWAWVKELLAEHPAELAEVEAARAARLAELRAEVEAKVAA
9.41 | E44Q (designed binder) MTLQELLREEALRRAEAEAFRYALELLAEKFPEQKEYLLDLAEQIESQIRSLSGVDVEDVRKFLDKEWAWVKELLAEHPAELAEVEAARAARLAELRAEVEAKVAA
0.653 | V57S (designed binder) MTLQELLREEALRRAEAEAFRYALELLAEKFPEQKEYLLDLAEEIESQIRSLSGVDSEDVRKFLDKEWAWVKELLAEHPAELAEVEAARAARLAELRAEVEAKVAA
0.718 | K72C (designed binder) MTLQELLREEALRRAEAEAFRYALELLAEKFPEQKEYLLDLAEEIESQIRSLSGVDVEDVRKFLDKEWAWVCELLAEHPAELAEVEAARAARLAELRAEVEAKVAA
0.539 | P32R (designed binder) MTLQELLREEALRRAEAEAFRYALELLAEKFREQKEYLLDLAEEIESQIRSLSGVDVEDVRKFLDKEWAWVKELLAEHPAELAEVEAARAARLAELRAEVEAKVAA
0.368 | S51F (designed binder) MTLQELLREEALRRAEAEAFRYALELLAEKFPEQKEYLLDLAEEIESQIRFLSGVDVEDVRKFLDKEWAWVKELLAEHPAELAEVEAARAARLAELRAEVEAKVAA
0.593 | A19G (designed binder) MTLQELLREEALRRAEAEGFRYALELLAEKFPEQKEYLLDLAEEIESQIRSLSGVDVEDVRKFLDKEWAWVKELLAEHPAELAEVEAARAARLAELRAEVEAKVAA

From article PMC12416549 (2024)
